Holding throughout (test): cell-based or functional assay
Experiment [1] deals with T1, human Vasoactive Intestinal Peptide Receptor 2 (VPAC2) (human) (UniProt P41587).
T1 sequence (looked up): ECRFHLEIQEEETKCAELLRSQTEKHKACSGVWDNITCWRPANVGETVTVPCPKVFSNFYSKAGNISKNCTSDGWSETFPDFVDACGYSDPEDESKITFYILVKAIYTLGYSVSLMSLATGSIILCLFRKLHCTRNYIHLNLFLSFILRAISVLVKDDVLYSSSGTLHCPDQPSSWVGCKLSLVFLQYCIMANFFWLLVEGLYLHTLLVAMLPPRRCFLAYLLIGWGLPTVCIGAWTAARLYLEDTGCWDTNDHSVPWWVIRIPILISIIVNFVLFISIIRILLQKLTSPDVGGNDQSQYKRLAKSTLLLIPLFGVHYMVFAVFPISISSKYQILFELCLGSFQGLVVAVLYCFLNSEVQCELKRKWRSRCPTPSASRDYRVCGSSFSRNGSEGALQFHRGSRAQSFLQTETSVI

Experiment [2] has as its target T2, human Vasoactive Intestinal Peptide Receptor 1 (VPAC1) (human) (UniProt P32241).
T2 sequence (looked up): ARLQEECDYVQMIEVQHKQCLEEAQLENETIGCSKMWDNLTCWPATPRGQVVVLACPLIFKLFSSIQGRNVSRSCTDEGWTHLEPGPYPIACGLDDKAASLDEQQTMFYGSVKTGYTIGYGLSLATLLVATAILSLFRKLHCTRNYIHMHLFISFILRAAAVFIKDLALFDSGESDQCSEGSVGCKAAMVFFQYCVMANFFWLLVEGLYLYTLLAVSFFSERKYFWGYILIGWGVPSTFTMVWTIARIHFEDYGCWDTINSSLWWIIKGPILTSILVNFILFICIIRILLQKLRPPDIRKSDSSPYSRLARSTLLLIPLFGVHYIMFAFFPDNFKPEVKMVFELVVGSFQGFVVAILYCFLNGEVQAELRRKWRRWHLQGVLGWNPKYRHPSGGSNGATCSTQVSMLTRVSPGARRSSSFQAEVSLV

For experiment [3], the target named is T3, human Vasoactive Intestinal Peptide Receptor 1 (VPAC1) (human, UniProt P32241 31-457).
T3 sequence (looked up): T2 sequence (looked up)

These results are taken from patent publication US20150111829A1 (PHASEBIO PHARMACEUTICALS, published 2015).

B1: VIP-ELP1-120 fusion peptide PB1120 (peptide, part only; not given: ELP1-120 polymer, part only)
chain, part: HSDAVFTDNYTRLRKQMAVKKYLNSILN
B1 returned a cAMP assay in CHO cells expressing VPAC2, fold less active than native VIP (fold less active than native VIP) in experiment [1] of 1.5. The same molecule yielded a cAMP assay in CHO cells expressing VPAC1, fold less active than native VIP (fold less active than native VIP) in experiment [2] of 1.4.

B2: M-VIP-ELP1-120 fusion protein PB1046 (other)
chain: MHSDAVFTDNYTRLRKQMAVKKYLNSILNVPGVGVPGVGVPGGGVPGAGVPGVGVPGVGVPGVGVPGGGVPGAGVPGGGVPGVGVPGVGVPGGGVPGAGVPGVGVPGVGVPGVGVPGGGVPGAGVPGGGVPGVGVPGVGVPGGGVPGAGVPGVGVPGVGVPGVGVPGGGVPGAGVPGGGVPGVGVPGVGVPGGGVPGAGVPGVGVPGVGVPGVGVPGGGVPGAGVPGGGVPGVGVPGVGVPGGGVPGAGVPGVGVPGVGVPGVGVPGGGVPGAGVPGGGVPGVGVPGVGVPGGGVPGAGVPGVGVPGVGVPGVGVPGGGVPGAGVPGGGVPGVGVPGVGVPGGGVPGAGVPGVGVPGVGVPGVGVPGGGVPGAGVPGGGVPGVGVPGVGVPGGGVPGAGVPGVGVPGVGVPGVGVPGGGVPGAGVPGGGVPGVGVPGVGVPGGGVPGAGVPGVGVPGVGVPGVGVPGGGVPGAGVPGGGVPGVGVPGVGVPGGGVPGAGVPGVGVPGVGVPGVGVPGGGVPGAGVPGGGVPGVGVPGVGVPGGGVPGAGVPGVGVPGVGVPGVGVPGGGVPGAGVPGGGVPGVGVPGVGVPGGGVPGAGVPGVGVPGVGVPGVGVPGGGVPGAGVPGGGVPGWP
In the case of B2, in experiment [3], the “cAMP assay in CHO cells expressing VPAC1, fold less active than native VIP” value was ~11 fold less active than native VIP.
